In patent US20100136006A1:

Legend:
[1] = biological target: IL34 (interleukin 34 ligand) (UniProt Q6ZMJ4); experiment: cell-based or functional assay
[2] = biological target: CSF1 (colony stimulating factor 1 ligand) (UniProt P09603); experiment: cell-based or functional assay
Sequence of UniProt P09603 (P09603 33-190 limits assumed): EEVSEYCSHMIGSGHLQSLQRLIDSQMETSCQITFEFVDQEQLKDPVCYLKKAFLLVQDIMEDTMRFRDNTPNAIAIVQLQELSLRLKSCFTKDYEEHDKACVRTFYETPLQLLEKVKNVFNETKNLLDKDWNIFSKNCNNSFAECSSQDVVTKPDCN

Sequence of UniProt Q6ZMJ4 (Q6ZMJ4 21-242 limits assumed): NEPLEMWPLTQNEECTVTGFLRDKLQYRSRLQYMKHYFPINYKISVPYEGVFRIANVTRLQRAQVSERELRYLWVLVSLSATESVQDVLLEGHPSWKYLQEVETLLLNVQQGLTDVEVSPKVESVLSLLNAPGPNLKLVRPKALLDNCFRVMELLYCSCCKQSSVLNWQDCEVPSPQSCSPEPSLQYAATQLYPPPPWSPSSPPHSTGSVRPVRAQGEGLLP

IC50 for inhibition of IL34-induced monocyte proliferation [1]: 0.27 nM
IC50 for inhibition of CSF1-induced monocyte proliferation [2]: 1.5 nM
Substance: hCSF1R-ECD.506-Fc (Fc fusion)
